Source: patent publication US20230212319A1, “NOVEL ANTIGEN BINDING DOMAINS AND SYNTHETIC ANTIGEN RECEPTORS INCORPORATING THE SAME” (University of Southern California, priority 2020, published 2023)

B1: 22113 (protein)
chain: MALPVTALLLPLALLLHAARPDIQMTQSPSSLSASVGDRVTITCKASDHINNWLAWYQQKPGQAPKLLIYGATTLETGVPSRFSGSGSGTDYTLTISSLQPEDFATYYCQQSWNTPWTFGQGTKLEIKRLEDLKNVFPPEVAVFEPSKAEIAHTQKATLVCLATGFYPDHVELSWWVNGKEVHSGVCTDPQPLKEQPALNDSRYCLSSRLRVSATFWQNPRNHFRCQVQFYGLSENDEWTQDRAKPVTQIVSAEAWGRADCGITSASYHQGVLSATILYEILLGKATLYAVLVSALVLMAMVKRKDSRGRAKRSGSGATNFSLLKQAGDVEENPGPTSMDWIWRILFLVGAATGAHSGPQVQLQESGGGLAQAGGSLRLSCAASGRTFSMGWFRQAPGKEREFVAAITYSGGSPYYASSVRGRFTISRDNAKNTVYLQMNSLKPEDTAVYYCAANPTYGSDWNAENWGQGTQVTVSSGSGGGGSGGGGSGGGGSFEQVQLQQPGAELVKPGASVKMSCKASGYAFSSYWINWMKQKPGQGLEWIGQIYPGDGDTNYNGKFKGRATLTADTSSSTAYMQLSSLTSEDSAVYFCARSITTVVGCAMDYWGQGTSVTVSSTRIQNPDPAVYQLRDSKSSDKSVCLFTDFDSQTNVSQSKDSDVYITDKCVLDMRSMDFKSNSAVAWSNKSDFACANAFNNSIIPEDTFFPSSDVPCDVKLVEKSFETDTNLNFQNLSVIGFRILLLKVAGFNLLMTLRLWSSRAKRSGSGVKQTLNFDLLKLAGDVESNPGPSRGHMTEYKPTVRLATRDDVPRAVRTLAAAFADYPATRHTVDPDRHIERVTELQELFLTRVGLDIGKVWVADDGAAVAVWTTPESVEAGAVFAEIGPRMAELSGSRLAAQQQMEGLLAPHRPKEPAWFLATVGVSPDHQGKGLGSAVVLPGVEAAERAGVPAFLETSAPRNLPFYERLGFTVTADVEVPEGPRTWCMTRKPGA
B2: 22120 (protein)
chain: MALPVTALLLPLALLLHAARPDIQMTQSPSSLSASVGDRVTITCKASDHINNWLAWYQQKPGQAPKLLIYGATTLETGVPSRFSGSGSGTDYTLTISSLQPEDFATYYCQQSWNTPWTFGQGTKLEIKRLEGQPKANPTVTLFPPSSEELQANKATLVCLISDFYPGAVTVAWKADGSPVKAGVETTKPSKQSNNKYAASSYLSLTPEQWKSHRSYSCQVTHEGSTVEKTVAPTECSGRADCGFTSESYQQGVLSATILYEILLGKATLYAVLVSALVLMAMVKRKDSRGRAKRSGSGATNFSLLKQAGDVEENPGPTSATMDWIWRILFLVGAATGAHSGPQVQLQESGGGLAQAGGSLRLSCAASGRTFSMGWFRQAPGKEREFVAAITYSGGSPYYASSVRGRFTISRDNAKNTVYLQMNSLKPEDTAVYYCAANPTYGSDWNAENWGQGTQVTVSSGSGGGGSGGGGSGGGGSFEQVQLQQPGAELVKPGASVKMSCKASGYAFSSYWINWMKQKPGQGLEWIGQIYPGDGDTNYNGKFKGRATLTADTSSSTAYMQLSSLTSEDSAVYFCARSITTVVGCAMDYWGQGTSVTVSSTRASTKGPSVFPLAPSSKSTSGGTAALGCLVKDYFPEPVTVSWNSGALTSGVHTFPAVLQSSGLYSLSSVVTVPSSSLGTQTYICNVNHKPSNTKVDKRVEPKSCIPEDTFFPSPESSCDVKLVEKSFETDTNLNFQNLSVIGFRILLLKVAGFNLLMTLRLWSSRAKRSGSGVKQTLNFDLLKLAGDVESNPGPSRGHMTEYKPTVRLATRDDVPRAVRTLAAAFADYPATRHTVDPDRHIERVTELQELFLTRVGLDIGKVWVADDGAAVAVWTTPESVEAGAVFAEIGPRMAELSGSRLAAQQQMEGLLAPHRPKEPAWFLATVGVSPDHQGKGLGSAVVLPGVEAAERAGVPAFLETSAPRNLPFYERLGFTVTADVEVPEGPRTWCMTRKPGA
B3: 22112 (protein)
chain: MALPVTALLLPLALLLHAARPDIQMTQSPSSLSASVGDRVTITCKASDHINNWLAWYQQKPGQAPKLLIYGATTLETGVPSRFSGSGSGTDYTLTISSLQPEDFATYYCQQSWNTPWTFGQGTKLEIKRLEDLKNVFPPEVAVFEPSEAEISHTQKATLVCLATGFYPDHVELSWWVNGKEVHSGVCTDPQPLKEQPALNDSRYCLSSRLRVSATFWQNPRNHFRCQVQFYGLSENDEWTQDRAKPVTQIVSAEAWGRADCGFTSESYQQGVLSATILYEILLGKATLYAVLVSALVLMAMVKRKDSRGRAKRSGSGATNFSLLKQAGDVEENPGPTSATMDWIWRILFLVGAATGAHSGPEVQLVESGGGLVQAGGSLRLSCAASGRTFTMGWFRQAPGKEREFVAAISLSPTLAYYADSVKGRFTISRDNAKNTVVLQMNSLKPEDTALYYCAADRKSVMSIRPDYWGQGTQVTVSSGSGGGGSGGGGSGGGGSFEQVQLQQPGAELVKPGASVKMSCKASGYAFSSYWINWMKQKPGQGLEWIGQIYPGDGDTNYNGKFKGRATLTADTSSSTAYMQLSSLTSEDSAVYFCARSITTVVGCAMDYWGQGTSVTVSSTRIQNPDPAVYQLRDSKSSDKSVCLFTDFDSQTNVSQSKDSDVYITDKCVLDMRSMDFKSNSAVAWSNKSDFACANAFNNSIIPEDTFFPSPESSCDVKLVEKSFETDTNLNFQNLSVIGFRILLLKVAGFNLLMTLRLWSSRAKRSGSGVKQTLNFDLLKLAGDVESNPGPSRGHMTEYKPTVRLATRDDVPRAVRTLAAAFADYPATRHTVDPDRHIERVTELQELFLTRVGLDIGKVWVADDGAAVAVWTTPESVEAGAVFAEIGPRMAELSGSRLAAQQQMEGLLAPHRPKEPAWFLATVGVSPDHQGKGLGSAVVLPGVEAAERAGVPAFLETSAPRNLPFYERLGFTVTADVEVPEGPRTWCMTRKPGA
B4: 22133 (protein)
chain: MALPVTALLLPLALLLHAARPEVQLVESGGGLVQPGGSLRLSCAASGFSFSDFWMSWVRQAPGKGLEWVATISQAGSEKDYVDSVKGRFTISRDNAKKSLYLQMNSLRAEDTAVYYCASGVYSFDYRGQGTLVTVSSGTGGGGSGGGGSGGGGSEFDIQMTQSPSSLSASVGDRVTITCKASDHINNWLAWYQQKPGQAPKLLIYGATTLETGVPSRFSGSGSGTDYTLTISSLQPEDFATYYCQQSWNTPWTFGQGTKLEIKRLEDLKNVFPPEVAVFEPSKAEIAHTQKATLVCLATGFYPDHVELSWWVNGKEVHSGVCTDPQPLKEQPALNDSRYCLSSRLRVSATFWQNPRNHFRCQVQFYGLSENDEWTQDRAKPVTQIVSAEAWGRADCGITSASYHQGVLSATILYEILLGKATLYAVLVSALVLMAMVKRKDSRGRAKRSGSGATNFSLLKQAGDVEENPGPTSATMDWIWRILFLVGAATGAHSGPQVQLQESGGGLAQAGGSLRLSCAASGRTFSMGWFRQAPGKEREFVAAITYSGGSPYYASSVRGRFTISRDNAKNTVYLQMNSLKPEDTAVYYCAANPTYGSDWNAENWGQGTQVTVSSGSGGGGSGGGGSGGGGSFEQVQLQQPGAELVKPGASVKMSCKASGYAFSSYWINWMKQKPGQGLEWIGQIYPGDGDTNYNGKFKGRATLTADTSSSTAYMQLSSLTSEDSAVYFCARSITTVVGCAMDYWGQGTSVTVSSTRIQNPDPAVYQLRDSKSSDKSVCLFTDFDSQTNVSQSKDSDVYITDKCVLDMRSMDFKSNSAVAWSNKSDFACANAFNNSIIPEDTFFPSSDVPCDVKLVEKSFETDTNLNFQNLSVIGFRILLLKVAGFNLLMTLRLWSSRAKRSGSGVKQTLNFDLLKLAGDVESNPGPSRGHMTEYKPTVRLATRDDVPRAVRTLAAAFADYPATRHTVDPDRHIERVTELQELFLTRVGLDIGKVWVADDGAAVAVWTTPESVEAGAVFAEIGPRMAELSGSRLAAQQQMEGLLAPHRPKEPAWFLATVGVSPDHQGKGLGSAVVLPGVEAAERAGVPAFLETSAPRNLPFYERLGFTVTADVEVPEGPRTWCMTRKPGA

Test system: RAJI cells
Assay: JNG assay, co-culture with RAJI cells
Assay type: cell-based
Details: JNG cells expressing construct, co-culture with Raji
In short: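 Jurkat NFAT-GFP (JNG) cells stably transduced with SARs by lentivirus, with drug selection where the construct carried a resistance gene, then co-cultured with target cells at E:T ~1:2 for ~4–18 h. % GFP-positive cells measured by FACS against parental JNG; +/- to 5+ correspond to ~5–50% GFP-positive.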

Molecule	NFAT-GFP ASSAY: Raji
B1	5+ (refer to approximately 5%, 10%, 20%, 30%, 40% and 50% GFP positive cells)
B2	4+ (refer to approximately 5%, 10%, 20%, 30%, 40% and 50% GFP positive cells)

Test system: RAJI-CD19-KO cells
Assay: JNG assay, co-culture with RAJI-CD19-KO cells
Assay type: cell-based
Details: co-culture with Raji-CD19-KO
Experimental: Cellular supernatant is collected and assayed for the induction of cytokines (e.g., IL2).
JNG (Jurkat cells expressing EGFP under an NFAT promoter) were infected with lentiviral vectors encoding different single chain and multi-chain SARs by spinfection in the presence of 8 µg/ml of Polybrene® (Sigma, Catalog no. H9268). The Jurkat-NFAT-GFP cells are engineered in such a way that the IL-2 promoter, which carries NFAT binding sites, is cloned upstream of the GFP gene. These cells have been used to study signaling via TCR and CAR. The different SARs were stably expressed in Jurkat NFAT-GFP cells by lentiviral mediated gene transfer, followed by selection with puromycin or blasticidin. No drug selection was used in case the construct lacked an antibiotic resistance gene. The SAR-expressing Jurkat-NFAT-GFP cells were cocultured with the target cells at E:T ratio of approximately 1:2 for approximately 4 hours to 18 hours. When the interaction between SIRs and their target antigen results in activation of the NFAT pathway, GFP expression is induced. […] GFP expression was monitored by FACS analysis. The Jurkat-NFAT-GFP (parental) cells were used as control. The structure of different constructs can be determined based on their names. […] The sequence of the other constructs in the table can be similarly determined from their names and by referring to the different Tables of this disclosure that provide the names and SEQ ID NO of the different modules. Alternatively, the composition and modular architecture of the different SAR constructs can be determined from their sequences by bioinformatics tools, including using nucleic acid and amino acids homology searches. A SAR is considered positive in the assay in case the SAR expressing Jurkat-NFAT-GFP cells show greater % GFP positive cells when cultured with the target cell line as compared to parental Jurkat-NFAT-GFP cells. […] In general, the number +/-, +, 2+, 3+, 4+, 5+ refer to approximately 5%, 10%, 20%, 30%, 40% and 50% GFP positive cells. The % of GFP induction in the above assay is dependent not only the relative strength of the SAR but also, among other factors, on the relative level of expression of the SAR in the JNG cells and the relative level of expression of the target antigen in the target cell line. To control for the difference in gene transduction efficiency of the different SAR constructs, the experiment was conducted with JNG cells transduced with SAR constructs co-expressing a drug resistance gene (e.g., puromycin or PAC) followed by drug selection to generate a stable population of SAR-expressing cells. It is to be noted that the drug resistance gene (e.g., PAC) in the SAR constructs is optional and in vivo studies were conducted with SAR constructs lacking the PAC gene.

Molecule	NFAT-GFP ASSAY: Raji-CD19-KO
B1	4+ (refer to approximately 5%, 10%, 20%, 30%, 40% and 50% GFP positive cells)
B3	5+ (refer to approximately 5%, 10%, 20%, 30%, 40% and 50% GFP positive cells)
B4	5+ (refer to approximately 5%, 10%, 20%, 30%, 40% and 50% GFP positive cells)
B2	3+ (refer to approximately 5%, 10%, 20%, 30%, 40% and 50% GFP positive cells)
